{"source": "patent US20220204994A1", "key": {"[1]": {"test_system": "B2M13-14.479 engineered meganuclease (Artificial)", "assay": "cell_activity", "conditions": "MC3 LNP repeat dose day 0 and day 3, ApoE, measured day 7; 22.62% in the comparison without repeat dosing"}, "[2]": {"target": "CD19 on Raji cells (B cell lymphoma line, Burkitt's Lymphoma) (UniProt P15391)", "sequence (P15391 20-556 limits assumed)": "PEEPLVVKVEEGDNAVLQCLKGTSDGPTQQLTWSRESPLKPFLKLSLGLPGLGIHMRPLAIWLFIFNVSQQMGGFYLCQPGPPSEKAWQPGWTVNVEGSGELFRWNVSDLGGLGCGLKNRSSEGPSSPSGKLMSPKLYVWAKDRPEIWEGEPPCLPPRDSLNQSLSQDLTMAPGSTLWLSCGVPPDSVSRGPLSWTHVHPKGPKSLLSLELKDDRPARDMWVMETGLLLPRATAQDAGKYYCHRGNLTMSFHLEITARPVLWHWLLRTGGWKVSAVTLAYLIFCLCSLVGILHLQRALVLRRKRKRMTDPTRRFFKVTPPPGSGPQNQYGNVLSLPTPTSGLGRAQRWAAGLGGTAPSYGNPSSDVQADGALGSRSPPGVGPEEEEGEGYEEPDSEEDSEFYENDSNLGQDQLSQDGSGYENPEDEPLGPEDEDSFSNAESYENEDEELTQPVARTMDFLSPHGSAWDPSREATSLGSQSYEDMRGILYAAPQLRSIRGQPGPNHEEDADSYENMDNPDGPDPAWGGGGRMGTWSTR", "assay": "cell-based or functional assay"}}}
{"substance": "B2M 13-14 recognition sequence (B2M gene)", "values": [{"measurement": "activity (% B2M knockout)", "setting": "[1]", "value": 26.4}]}
{"substance": "anti-CD19 CAR (FMC63) expressed on human donor T cells after AAV6-7206 transduction", "values": [{"measurement": "killing of CD19+ Raji cells in 16 h co-culture (CAR T cells made with AAV added 0-24 hours after LNP)", "setting": "[2]", "value": 99, "unit": "%"}, {"measurement": "killing of CD19+ Raji cells in 16 h co-culture (CAR T cells made with AAV added 24-48 hours after LNP)", "setting": "[2]", "value": 94, "unit": "%"}]}
